Substrate in this series: Nc1ncnc2c1ncn2[C@@H]1O[C@H](CO)[C@H]2OP(=O)(O)O[C@H]21
The series is described as follows: purified protein. The class given is biochemical, Thermobifida fusca. To be noted: pH 7.5.

B1: (Thermobifida fusca YX) (protein)
chain: MPEHDSTDDKHGIPPLDLRFWAKERGLRGKTYPLVCHSLDAAAAALVLWNEYLSPGLRDTIASSMETDEEHAGHCIAFWAGLHDIGKLTREFQQQIAIDLSAYPGEELSGEQRSHAAATGKWLPFALPSLGYPNGGLVTGLVAQMLGGHHGTFHPHPSFQSRNPLAEFGFSSPHWEKQRHALLHAVFDATGRPTPPDMLDGPTASVVCGLVILADWLVSQEDFLLERLTSLPADGSASALRAHFETSLRRIPSLLDAAGLRPITVPPATFTESFPHLSKPNGLQASLAKHLPCLCTGPGLVLITAPMGEGKTEAAYHVADLLGKATGRPGRFLALPTMATADQMHTRLKEYARYRVENTDLPRSSTLALLHSMAWLNPDYAPADLPGVSKVLSNLGHRDPFAATDWLMGRKRGLLAPWAVGTIDQALMAVLRAKHNALRLFGLAGKVVVVDEAHAVDPYMQVLLEQLLRWLGTLDVPVVLLSATLHHSIANSLVKAYLEGARGRRWNRSEPQPVSEVSYPGWLHVDARIGKVTRSSDVDPLPIATTPRKPLEVRLVDVPVKEGALNRSTVLAKELTPLVKQGGCAAIICTTVAEAQGVYDLLSQWFATLGEDAPDLYLLHSRFPNRQRTEITATIVDLFGKEGAQSGRRPTRGAVLVATQVVEQSLDLDVDLMISDLAPVSLLLQRAGRCWRHEHLGIINRPQWAKQPELVVLTPEQNGDADRAPWFPRSWTSVYPLALLQRTYTLLRRRNGAPVQIPEDVQQLVDDVYDDDSLAEDLEADMERMGEELAQRGLARNAVIPDPDDAEDNLNGLTEFSFDVDEHVLATRFGAGSVRVLCYYVDTAGNRWLDPECTVEFPEQGTGREGRFTMADCRDLVARTIPVRMGPWASQLTEDNHPPEAWRESFYLRDLVLIPQRVTDEGAVLPTETGGREWLLDPCKGLIF
As to B1, the Km is given as 27 (±6) mM.

These data come from paper PMC9109717.
